Reference: PMC4273445 (eLife, 2014)
“And” between values parts separate entries of the source, which are not always exact repeats. Identical values can stand only once.

B1: CFH67, CCP domains 6 and 7 of complement factor H (domain or fragment)
chain: TLKPCDYPDIKHGGLYHENMRRPYFPVAVGKYYSYYCDEHFETPSGSYWDHIHCTQDGWSPAVPCLRKCYFPYLENGYNQNYGRKFVQGKSIDVACHPGYALPKAQTTVTCMENGWSPTPRCI
notes: source: prepared as previously described (Prosser et al., 2007)

How the values were obtained:
[1] = target: fHbp V1.1, recombinant His-tagged (Neisseria meningitidis) (UniProt Q9JXV4); test: SPR
[2] = target: factor H binding protein (fHbp) V3.28 (N. meningitidis, UniProt E6MV22 20-274); test: SPR; settings: both partners purified
[3] = target: T1, factor H binding protein (fHbp) V1.1 (N. meningitidis, UniProt Q9JXV4 20-274); test: SPR; settings: both partners purified
T1 construct: fHbp variant 1.1; source: recombinant, as in Johnson et al., 2012
T1 sequence: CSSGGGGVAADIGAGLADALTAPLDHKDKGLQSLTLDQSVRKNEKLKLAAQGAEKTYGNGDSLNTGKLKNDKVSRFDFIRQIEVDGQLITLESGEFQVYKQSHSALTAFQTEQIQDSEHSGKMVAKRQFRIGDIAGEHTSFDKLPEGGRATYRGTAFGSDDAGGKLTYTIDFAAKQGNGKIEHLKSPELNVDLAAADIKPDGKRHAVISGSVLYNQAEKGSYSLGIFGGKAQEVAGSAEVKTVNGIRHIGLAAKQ

[4] = target: T2, factor H binding protein (fHbp) V3.28, recombinant His-tagged (Neisseria meningitidis, UniProt E6MV22 20-274); test: SPR
T2 chain: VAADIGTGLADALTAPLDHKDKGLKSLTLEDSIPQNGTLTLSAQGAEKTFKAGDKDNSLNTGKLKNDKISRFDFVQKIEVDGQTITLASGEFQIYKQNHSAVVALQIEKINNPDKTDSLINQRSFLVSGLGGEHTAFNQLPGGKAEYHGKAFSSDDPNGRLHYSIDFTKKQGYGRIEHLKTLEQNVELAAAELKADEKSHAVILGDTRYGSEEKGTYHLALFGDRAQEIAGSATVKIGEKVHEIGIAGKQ

[5] = target: factor H binding protein (fHbp) V3.28, recombinant His-tagged (Neisseria meningitidis), E6MV22; test: MST
[6] = target: T2, factor H binding protein (fHbp) V3.28, …; test: MST
[7] = target: factor H binding protein (fHbp) V3.28 (N. meningitidis), E6MV22; test: SPR
[8] = target: T3, CFHR3_(12), the first two (N-terminal) CCP domains of complement factor H-related 3 (human, UniProt Q02985 19-330); test: SPR; settings: both partners purified
T3 construct: also called CFHR12
T3 sequence: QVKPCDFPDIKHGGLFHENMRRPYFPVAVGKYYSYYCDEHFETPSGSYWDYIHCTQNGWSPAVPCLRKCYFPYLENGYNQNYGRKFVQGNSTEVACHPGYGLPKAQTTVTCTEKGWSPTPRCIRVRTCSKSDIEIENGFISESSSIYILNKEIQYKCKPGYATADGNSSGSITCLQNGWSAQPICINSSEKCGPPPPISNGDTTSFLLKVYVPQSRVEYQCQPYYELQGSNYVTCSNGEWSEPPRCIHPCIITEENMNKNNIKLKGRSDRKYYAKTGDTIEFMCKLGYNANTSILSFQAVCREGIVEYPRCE

[9] = target: B1; test: SPR; settings: both partners purified
[10] = target: T3, CFHR3_(12), the first two (N-terminal) …; test: SPR; settings: both partners purified; remark: listed apart in the source
[11] = target: B1; test: SPR; settings: both partners purified; remark: listed apart in the source

For “CFHR3_(12), the first two CCP domains of CFHR3 (domain or fragment)”, the specificity for CFH over CFHR3 (fold) [1] was 20 fold.

With B1 the Kd [2] was 2.74 nM and 2.46 nM and 3.17 nM and the Kd [3] was 3.56 nM.

B2: CFHR3_(12), the first two CCP domains of CFHR3 (domain or fragment)
chain: KPCDFPDIKHGGLFHENMRRPYFPVAVGKYYSYYCDEHFETPSGSYWDYIHCTQNGWSPAVPCLRKCYFPYLENGYNQNYGRKFVQGNSTEVACHPGYGLPKAQTTVTCTEKGWSPTPRCIR
For B2, the Kd [4] was 4 nM.

B3: complement factor-H related 3 (CFHR3), full length, recombinant His-tagged, Q02985 19-330 (natural protein)
chain: QVKPCDFPDIKHGGLFHENMRRPYFPVAVGKYYSYYCDEHFETPSGSYWDYIHCTQNGWSPAVPCLRKCYFPYLENGYNQNYGRKFVQGNSTEVACHPGYGLPKAQTTVTCTEKGWSPTPRCIRVRTCSKSDIEIENGFISESSSIYILNKEIQYKCKPGYATADGNSSGSITCLQNGWSAQPICINSSEKCGPPPPISNGDTTSFLLKVYVPQSRVEYQCQPYYELQGSNYVTCSNGEWSEPPRCIHPCIITEENMNKNNIKLKGRSDRKYYAKTGDTIEFMCKLGYNANTSILSFQAVCREGIVEYPRCE
Molecule B3 has a Kd [5] of 3 nM.

B4: complement factor-H related 3 (CFHR3), full length, recombinant His-tagged (natural protein)
chain: QVKPCDFPDIKHGGLFHENMRRPYFPVAVGKYYSYYCDEHFETPSGSYWDYIHCTQNGWSPAVPCLRKCYFPYLENGYNQNYGRKFVQGNSTEVACHPGYGLPKAQTTVTCTEKGWSPTPRCIRVRTCSKSDIEIENGFISESSSIYILNKEIQYKCKPGYATADGNSSGSITCLQNGWSAQPICINSSEKCGPPPPISNGDTTSFLLKVYVPQSRVEYQCQPYYELQGSNYVTCSNGEWSEPPRCIHPCIITEENMNKNNIKLKGRSDRKYYAKTGDTIEFMCKLGYNANTSILSFQAVCREGIVEYPRCE
With B4 the Kd [6] was 9 nM.

B5: CFHR3_(12), the first two (N-terminal) CCP domains of complement factor H-related 3, Q02985 19-330 (domain or fragment)
chain: QVKPCDFPDIKHGGLFHENMRRPYFPVAVGKYYSYYCDEHFETPSGSYWDYIHCTQNGWSPAVPCLRKCYFPYLENGYNQNYGRKFVQGNSTEVACHPGYGLPKAQTTVTCTEKGWSPTPRCIRVRTCSKSDIEIENGFISESSSIYILNKEIQYKCKPGYATADGNSSGSITCLQNGWSAQPICINSSEKCGPPPPISNGDTTSFLLKVYVPQSRVEYQCQPYYELQGSNYVTCSNGEWSEPPRCIHPCIITEENMNKNNIKLKGRSDRKYYAKTGDTIEFMCKLGYNANTSILSFQAVCREGIVEYPRCE
With B5 the Kd [7] was 4.08 nM and 4 nM and 4.25 nM.

B6: fHbp V2.21 Val (at V1 Val272) to Ala (natural protein)
chain: VAADIGAGLADALTAPLDHKDKSLQSLTLDQSVRKNEKLKLAAQGAEKTYGNGDSLNTGKLKNDKVSRFDFIRQIEVDGQLITLESGEFQIYKQDHSAVVALQIEKINNPDKIDSLINQRSFLVSGLGGEHTAFNQLPSGKAEYHGKAFSSDDPNGRLHYSIDFTKKQGYGRIEHLKTPEQNVELASAELKADEKSHAAILGDTRYGSEEKGTYHLALFGDRAQEIAGSATVKIREKVHEIGIAGKQ
B6 gave a Kd [8] of 63.5 nM.

B7: fHbp V3.28 Val (at V1 Val272) to Ala (natural protein)
chain: VAADIGTGLADALTAPLDHKDKGLKSLTLEDSIPQNGTLTLSAQGAEKTFKAGDKDNSLNTGKLKNDKISRFDFVQKIEVDGQTITLASGEFQIYKQNHSAVVALQIEKINNPDKTDSLINQRSFLVSGLGGEHTAFNQLPGGKAEYHGKAFSSDDPNGRLHYSIDFTKKQGYGRIEHLKTLEQNVELAAAELKADEKSHAAILGDTRYGSEEKGTYHLALFGDRAQEIAGSATVKIGEKVHEIGIAGKQ
B7 gave a Kd [9] of 25.3 nM and a Kd [10] of 42 nM.

B8: fHbp V2.21 Gln (at V1 Lys191) to Ala (natural protein)
chain: MGPDSDRLQQRRVAADIGAGLADALTAPLDHKDKSLQSLTLDQSVRKNEKLKLAAQGAEKTYGNGDSLNTGKLKNDKVSRFDFIRQIEVDGQLITLESGEFQIYKQDHSAVVALQIEKINNPDKIDSLINARSFLVSGLGGEHTAFNQLPSGKAEYHGKAFSSDDPNGRLHYSIDFTKKQGYGRIEHLKTPEQNVELASAELKADEKSHAVILGDTRYGSEEKGTYHLALFGDRAQEIAGSATVKIREKVHEIGIAGKQLEHHHHHH
In the case of B8, the Kd [11] is reported as 3.02 nM and the Kd [8] is reported as 2.85 nM.
